In publication PMC8216282, “Structural basis for the dynamics of human methionyl-tRNA synthetase in multi-tRNA synthetase complexes” (Nucleic Acids Research, 2021):

What was measured:
[1] = biological target: T1, MRS full-length (in MRS-AIMP3 complex);AIMP3 (in MRS-AIMP3 complex) (human;human?, UniProt P56192;O43324 1-900;1-174, |); experiment: MST; labeled RNA (80 nM); MST: PBS, 1-100 uM protein, 80 nM 6-FAM-RNA, temperature not stated; pull-down: 50 mM Tris-HCl pH 7.5, 150 mM NaCl, Ni-NTA (yeast total tRNA pool not listed); conditions: protein: recombinant;recombinant; copies: 1;1; tRNA fold
T1 sequence 1: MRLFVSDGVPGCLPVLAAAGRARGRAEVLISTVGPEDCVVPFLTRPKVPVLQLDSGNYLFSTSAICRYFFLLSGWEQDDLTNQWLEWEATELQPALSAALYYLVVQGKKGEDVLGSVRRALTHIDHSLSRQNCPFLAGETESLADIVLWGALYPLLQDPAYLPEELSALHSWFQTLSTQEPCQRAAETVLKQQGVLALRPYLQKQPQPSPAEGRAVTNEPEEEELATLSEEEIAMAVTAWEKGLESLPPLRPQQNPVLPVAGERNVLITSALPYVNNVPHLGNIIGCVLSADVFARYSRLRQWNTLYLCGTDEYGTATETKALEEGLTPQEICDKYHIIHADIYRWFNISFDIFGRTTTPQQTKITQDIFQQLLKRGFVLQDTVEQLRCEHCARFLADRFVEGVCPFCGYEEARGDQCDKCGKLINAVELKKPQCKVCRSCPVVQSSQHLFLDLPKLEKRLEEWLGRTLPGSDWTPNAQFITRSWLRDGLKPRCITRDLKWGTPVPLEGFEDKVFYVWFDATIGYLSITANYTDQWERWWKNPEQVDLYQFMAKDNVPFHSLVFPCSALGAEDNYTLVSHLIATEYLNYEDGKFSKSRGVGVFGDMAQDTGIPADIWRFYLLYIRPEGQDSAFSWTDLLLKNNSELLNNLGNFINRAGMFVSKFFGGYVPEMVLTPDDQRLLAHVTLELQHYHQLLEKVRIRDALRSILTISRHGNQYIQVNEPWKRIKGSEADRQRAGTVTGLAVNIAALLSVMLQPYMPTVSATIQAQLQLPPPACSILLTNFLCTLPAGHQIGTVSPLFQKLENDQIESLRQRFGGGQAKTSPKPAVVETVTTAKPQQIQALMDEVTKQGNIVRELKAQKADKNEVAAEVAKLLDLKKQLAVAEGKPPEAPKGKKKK
T1 sequence 2: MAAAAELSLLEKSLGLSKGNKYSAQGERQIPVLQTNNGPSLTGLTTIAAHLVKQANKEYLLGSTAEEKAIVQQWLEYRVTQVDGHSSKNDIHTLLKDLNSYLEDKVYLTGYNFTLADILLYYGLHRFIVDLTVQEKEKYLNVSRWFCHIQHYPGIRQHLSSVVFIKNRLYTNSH

[2] = biological target: T2, MRS221-900 (methionyl-tRNA synthetase without N-terminal GST domain) (human, UniProt P56192 221-900); experiment: as above; conditions: protein: recombinant; tags: hexa-His; tRNA fold
T2 sequence: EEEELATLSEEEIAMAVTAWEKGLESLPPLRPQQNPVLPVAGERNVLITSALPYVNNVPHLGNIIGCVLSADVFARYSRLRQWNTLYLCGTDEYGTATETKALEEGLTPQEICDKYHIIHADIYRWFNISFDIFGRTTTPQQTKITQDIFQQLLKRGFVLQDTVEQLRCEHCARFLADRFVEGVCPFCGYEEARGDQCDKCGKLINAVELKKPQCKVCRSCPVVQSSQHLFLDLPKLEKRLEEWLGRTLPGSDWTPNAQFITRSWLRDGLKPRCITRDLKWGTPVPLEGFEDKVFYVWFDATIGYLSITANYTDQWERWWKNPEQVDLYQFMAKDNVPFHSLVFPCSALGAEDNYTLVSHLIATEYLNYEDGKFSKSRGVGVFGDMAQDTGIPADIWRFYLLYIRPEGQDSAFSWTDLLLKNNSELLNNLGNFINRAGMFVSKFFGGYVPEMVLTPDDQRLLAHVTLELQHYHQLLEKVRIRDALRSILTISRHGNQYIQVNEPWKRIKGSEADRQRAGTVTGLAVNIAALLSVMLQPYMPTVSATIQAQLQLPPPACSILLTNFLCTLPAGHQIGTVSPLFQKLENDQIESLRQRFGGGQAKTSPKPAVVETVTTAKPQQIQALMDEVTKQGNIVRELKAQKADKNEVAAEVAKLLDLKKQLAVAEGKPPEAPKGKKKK

[3] = biological target: T2, MRS221-900 (methionyl-tRNA synthetase …); experiment: pull-down (Ni-NTA, fluorescence); almost 2-fold; MST: PBS, 1-100 uM protein, 80 nM 6-FAM-RNA, temperature not stated; pull-down: 50 mM Tris-HCl pH 7.5, 150 mM NaCl, Ni-NTA (yeast total tRNA pool not listed); conditions: protein: recombinant, tags: hexa-His
[4] = biological target: T1, MRS full-length (in MRS-AIMP3 …); experiment: MST; protein labeled with Red-tris-NTA, unlabeled RNA; MST: PBS, 1-100 uM protein, 80 nM 6-FAM-RNA, temperature not stated; pull-down: 50 mM Tris-HCl pH 7.5, 150 mM NaCl, Ni-NTA (yeast total tRNA pool not listed); conditions: protein: recombinant;recombinant; copies: 1;1; label: none (Results); Methods text says 6-FAM-RNA for this assay too; tRNA fold
[5] = biological target: T2, MRS221-900 (methionyl-tRNA synthetase …); experiment: as above; conditions: protein: recombinant; tags: hexa-His; label: none (Results); Methods text says 6-FAM-RNA for this assay too; tRNA fold
[6] = biological target: T3, AIMP3 with the nanoluciferase large subunit at its N-terminus (LgBit-AIMP3) (human, UniProt O43324 1-174); experiment: split reporter (BiFC, NanoBiT); NanoBiT; LgBit on the N- or C-terminus of AIMP3, SmBit on the N- or C-terminus of MRS or on AIMP3; co-expressed in CHO-K1 cells; luminescence measured with cell-permeable substrate; conditions: partners not purified
T3 construct: AIMP3, human; source: CHO-K1 cells, transfected, in live cells; not shown: LgBit (NanoLuc large subunit), N-terminal, kept
T3 sequence (looked up): T1 sequence 2

[7] = biological target: T4, human MRS without the C-terminal WHEP domain (MRS 1-834) (human, UniProt P56192 1-834); experiment: SEC; Superdex 200 10/300 column, Tris-HCl pH 7.5, 150 mM NaCl; molecular weights from a calibration curve of standards; conditions: both partners purified
T4 construct: methionyl-tRNA synthetase, cytosolic, human, residues 1-834; source: E. coli BL21 (DE3), purified (Ni-NTA, size-exclusion chromatography); as complex with AIMP3
T4 sequence (looked up): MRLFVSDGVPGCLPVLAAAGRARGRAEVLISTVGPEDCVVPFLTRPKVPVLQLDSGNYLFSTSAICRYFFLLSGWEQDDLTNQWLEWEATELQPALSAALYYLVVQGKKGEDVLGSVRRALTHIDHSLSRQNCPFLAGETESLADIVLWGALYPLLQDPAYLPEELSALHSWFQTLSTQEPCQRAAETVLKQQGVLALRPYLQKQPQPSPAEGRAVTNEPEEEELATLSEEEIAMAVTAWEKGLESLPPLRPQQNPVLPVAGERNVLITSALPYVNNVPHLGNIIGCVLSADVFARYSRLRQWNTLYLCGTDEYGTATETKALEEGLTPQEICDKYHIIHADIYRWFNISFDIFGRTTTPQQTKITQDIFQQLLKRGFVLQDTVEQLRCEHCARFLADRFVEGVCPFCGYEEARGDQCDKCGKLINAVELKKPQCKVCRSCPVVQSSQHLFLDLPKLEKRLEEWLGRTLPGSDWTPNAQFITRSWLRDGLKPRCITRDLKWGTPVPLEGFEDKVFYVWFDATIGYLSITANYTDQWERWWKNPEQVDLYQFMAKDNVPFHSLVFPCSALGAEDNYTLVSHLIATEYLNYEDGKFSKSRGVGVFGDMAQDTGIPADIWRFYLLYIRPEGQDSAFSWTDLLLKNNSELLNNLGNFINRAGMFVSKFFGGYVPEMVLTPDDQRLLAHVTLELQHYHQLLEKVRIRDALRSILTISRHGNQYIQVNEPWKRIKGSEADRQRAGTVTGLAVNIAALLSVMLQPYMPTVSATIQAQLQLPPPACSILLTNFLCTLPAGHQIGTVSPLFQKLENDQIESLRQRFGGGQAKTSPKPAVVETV

[8] = biological target: T5, human cytosolic methionyl-tRNA synthetase, full length (MRS 1-900) (human, UniProt P56192 1-900); experiment: as above; conditions: both partners purified
T5 construct: methionyl-tRNA synthetase, cytosolic, human, residues 1-900 (900-residue protein); source: recombinant from pET30a or pQE80L plasmids, obtained as MRS-AIMP3 complex by co-purification
T5 sequence (looked up): T1 sequence 1

[9] = biological target: T6, extended GST domain of human MRS (MRS 1-224) (human, UniProt P56192 1-224); experiment: crystal structure; MRS_(1-224)-AIMP3 complex crystallised in 20% PEG 8000, 0.1 M HEPES pH 7.5; molecular replacement; 2.0 A; conditions: both partners purified
T6 construct: methionyl-tRNA synthetase, cytosolic, human, residues 1-224 (GST domain and first part of the linker); also called MRSGST; source: recombinant, obtained as MRS_(1-224)-AIMP3 complex by co-purification
T6 sequence (looked up): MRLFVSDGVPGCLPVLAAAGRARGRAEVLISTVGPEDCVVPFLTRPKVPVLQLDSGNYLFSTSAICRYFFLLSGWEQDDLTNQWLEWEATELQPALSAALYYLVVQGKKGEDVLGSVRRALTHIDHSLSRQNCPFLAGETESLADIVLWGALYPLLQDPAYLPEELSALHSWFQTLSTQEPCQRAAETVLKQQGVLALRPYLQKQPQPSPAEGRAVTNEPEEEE

B1: 6-FAM synthetic elongator tRNAMet (structured_RNA)
RNA: GCCUCGUUAGCGCAGUAGGUAGCGCGUCAGUCUCAUAAUCUGAAGGUCGUGAGUUCGAUCCUCACACGGGGCA
modifications: none stated (synthetic RNA)
Kd [1]: 31.6 µM | Kd [2]: 12.8 µM | binding signal [3]: ~2 fold vs MRS-AIMP3 complex

B2: unlabeled synthetic elongator tRNAMet (structured_RNA)
RNA: B1 RNA
modifications: none stated (synthetic RNA)
Kd [4]: 60.2 µM | Kd [5]: 21.6 µM

B3: MRS with the nanoluciferase small subunit at its N-terminus (SmBit-MRS) (enzyme, human, UniProt P56192 1-900, looked up)
chain: T1 sequence 1
notes: methionyl-tRNA synthetase, cytosolic, human; source: CHO-K1 cells, transfected, in live cells; not shown: SmBit (NanoLuc small subunit), N-terminal, kept
fold increase of luciferase activity over background [6]: > 120 fold

B4: AIMP3 (AARS-interacting multifunctional protein 3) (natural protein, human)
chain: T1 sequence 2
notes: AIMP3, human; 'Genes for full-length human MRS (residues 1-900) and AIMP3' were cloned; the earlier structure (PDB 4bvx) used AIMP3 1-169; source: recombinant from pET30a or pQE80L plasmids, co-purified with MRS or MRS_(1-224)
binding result [7]: binds | binding result [8]: binds | binding result [9]: binds
